Laboratory results: article PMC5018734

Molecular target: T1, human P2X1 receptor, wild type subunit (human) (UniProt P51575)
T1 sequence: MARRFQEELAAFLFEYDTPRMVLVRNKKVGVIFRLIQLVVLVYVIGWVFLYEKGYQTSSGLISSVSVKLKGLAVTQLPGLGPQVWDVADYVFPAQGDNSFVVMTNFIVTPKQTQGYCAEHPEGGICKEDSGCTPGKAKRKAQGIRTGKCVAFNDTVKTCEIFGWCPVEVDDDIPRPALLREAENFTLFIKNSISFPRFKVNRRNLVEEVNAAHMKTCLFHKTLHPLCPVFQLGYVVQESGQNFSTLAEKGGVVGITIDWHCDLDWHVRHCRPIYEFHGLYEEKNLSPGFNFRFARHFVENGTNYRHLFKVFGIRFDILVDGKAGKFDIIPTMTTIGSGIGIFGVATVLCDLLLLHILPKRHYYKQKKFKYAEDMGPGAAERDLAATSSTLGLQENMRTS

- ATP (100 uM) evoked decrease in MTS-TAMRA fluorescence (voltage clamp fluorometry) in oocytes co-expressing WT and K68A-K190C subunits; neither homomer shows a fluorescence change: 3%
B1: human P2X1 receptor K190C-K68A double mutant subunit (receptor)
chain: MARRFQEELAAFLFEYDTPRMVLVRNKKVGVIFRLIQLVVLVYVIGWVFLYEKGYQTSSGLISSVSVALKGLAVTQLPGLGPQVWDVADYVFPAQGDNSFVVMTNFIVTPKQTQGYCAEHPEGGICKEDSGCTPGKAKRKAQGIRTGKCVAFNDTVKTCEIFGWCPVEVDDDIPRPALLREAENFTLFICNSISFPRFKVNRRNLVEEVNAAHMKTCLFHKTLHPLCPVFQLGYVVQESGQNFSTLAEKGGVVGITIDWHCDLDWHVRHCRPIYEFHGLYEEKNLSPGFNFRFARHFVENGTNYRHLFKVFGIRFDILVDGKAGKFDIIPTMTTIGSGIGIFGVATVLCDLLLLHILPKRHYYKQKKFKYAEDMGPGAAERDLAATSSTLGLQENMRTS
modifications: labelled with the cysteine reactive fluorophore MTS-TAMRA (K190C)
